To fix the notation:
B1: Rab5 GDP/GTP exchange factor (Bos taurus (Bovine)), O18973 (parent)
chain: MSLKSERRGIHVDQSELLCKKGCGYYGNPAWQGFCSKCWREEYHKARQKQIQEDWELAERLQREEEEAFASSQSSQGAQSLTFSKFEEKKTNEKTRKVTTVKKFFSASSRVGAKKAEIQEAKAPSPSINRQTSIETDRVSKEFIEFLKTFHKTGQEIYKQTKLFLEAMHYKRDLSIEEQSECTQDFYQNVAERMQTRGKVPPERVEKIMDQIEKYIMTRLYKYVFCPETTDDEKKDLAIQKRIRALHWVTPQMLCVPVNEEIPEVSDMVVKAITDIIEMDSKRVPRDKLACITKCSKHIFNAIKITKNEPASADDFLPTLIYIVLKGNPPRLQSNIQYITRFCNPSRLMTGEDGYYFTNLCCAVAFIEKLDAQSLNLSQEDFDRYMSGQTSPRKQESENWSPDACLGVKQMYKNLDLLSQLNERQERIMNEAKKLEKDLIDWTDGIAKEVQDIVEKYPLEIRPPNQSVAAIDSENVENDKLPPPLQPQVYAG

In the assay the parent is B1. The note with it: with UBE2D3, P61077-1.
UBE2D3, P61077-1, sequence (P61077 whole entry): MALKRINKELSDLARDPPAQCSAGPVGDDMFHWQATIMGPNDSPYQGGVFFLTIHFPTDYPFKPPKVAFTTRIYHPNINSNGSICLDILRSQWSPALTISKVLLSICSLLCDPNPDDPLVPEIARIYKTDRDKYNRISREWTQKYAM
For the variant Y25A;Y26A, the “effect of a mutation on the interaction” value is given as “disrupting interaction”.
